Reference: publication doi:10.1101/2024.02.28.582571

Biological target: microtubules assembled from purified bovine brain tubulin (bovine) (UniProt Q6B856)
Assay: optical trap rupture force assay; kinetochores held on polystyrene beads through α-penta-His antibody; dynamic microtubules grown from coverslip-anchored GMPCPP seeds with bovine brain tubulin in BRB80, 1 mM GTP; 23 °C; force ramp 0.25 pN/s

Chain of UniProt Q6B856 (Q6B856 whole entry, looked up): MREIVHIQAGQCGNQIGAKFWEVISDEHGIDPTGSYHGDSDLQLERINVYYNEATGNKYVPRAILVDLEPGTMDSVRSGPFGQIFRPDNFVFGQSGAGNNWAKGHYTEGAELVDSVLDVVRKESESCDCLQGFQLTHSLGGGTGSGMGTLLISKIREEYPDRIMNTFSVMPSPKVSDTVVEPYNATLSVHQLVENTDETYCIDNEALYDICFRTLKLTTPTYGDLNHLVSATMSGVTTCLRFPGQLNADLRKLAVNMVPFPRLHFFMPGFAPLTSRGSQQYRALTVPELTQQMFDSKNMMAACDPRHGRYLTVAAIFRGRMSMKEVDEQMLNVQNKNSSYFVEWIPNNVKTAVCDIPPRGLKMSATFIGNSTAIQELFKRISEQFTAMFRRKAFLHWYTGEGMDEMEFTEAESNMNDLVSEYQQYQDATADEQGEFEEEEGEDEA

Substance	median rupture force [pN]
native kinetochores purified from Kluyveromyces marxianus via Dsn1-6His-3M3DK (from UniProt A0ABX6F0Z3 1-547) (complex)	7.5
native kinetochores purified from Saccharomyces cerevisiae via Dsn1-6His-3M3DK (from UniProt P40568 1-576) (complex)	7.2
